pKd: −log10 of the molar value.
What was measured:
[1] = biological target: PEGylated modified IL-18 polypeptide SEQ ID NO: 4 + PEG (E6K, C38A, K53A, C68A, M86C-30kPEG) (human) (UniProt Q14116); assay: cell-based or functional assay
[2] = biological target: modified IL-18 polypeptide SEQ ID NO: 28 (E6K, C38A, K53A, T63A, C76A, C127A) (human) (UniProt Q14116); assay: cell-based or functional assay
[3] = biological target: modified IL-18 polypeptide SEQ ID NO: 215 (V11I, E31A, D37A, C38A, K53A, C76A, C127A) (human) (UniProt Q14116); assay: cell-based or functional assay
[4] = biological target: modified IL-18 polypeptide SEQ ID NO: 214 (V11I, D37A, C38A, K53A, C76A, C127A) (human) (UniProt Q14116); assay: cell-based or functional assay
[5] = biological target: modified IL-18 polypeptide SEQ ID NO: 222 (K8R, V11I, C38A, C76A, Q103E, C127A) (human) (UniProt Q14116); assay: cell-based or functional assay
[6] = biological target: modified IL-18 polypeptide SEQ ID NO: 224 (V11I, C38A, C76A, Q103K, C127A) (human) (UniProt Q14116); assay: cell-based or functional assay
[7] = biological target: modified IL-18 polypeptide SEQ ID NO: 221 (V11I, C38A, K53A, C76A, D110A, C127A) (human) (UniProt Q14116); assay: cell-based or functional assay
[8] = biological target: modified IL-18 polypeptide SEQ ID NO: 219 (V11I, C38A, K53A, C76A, G108A, C127A) (human) (UniProt Q14116); assay: cell-based or functional assay
[9] = biological target: modified IL-18 polypeptide SEQ ID NO: 209 (F2A, V11I, C38A, K53A, C76A, C127A) (human) (UniProt Q14116); assay: cell-based or functional assay
[10] = biological target: modified IL-18 polypeptide SEQ ID NO: 206 (V11I, C38A, K53A, S55A, C76A, C127A) (human) (UniProt Q14116); assay: cell-based or functional assay
[11] = biological target: modified IL-18 polypeptide SEQ ID NO: 9 (E6K, C38A, K53A, C68A, D98C) (human) (UniProt Q14116); assay: cell-based or functional assay
[12] = biological target: PEGylated modified IL-18 polypeptide SEQ ID NO: 5 + PEG (E6K, V11I, C38A, K53A, T63A, C68A, C76A, C127A, M86C-30kPEG) (human) (UniProt Q14116); assay: cell-based or functional assay
[13] = biological target: modified IL-18 polypeptide SEQ ID NO: 63 (E6K, C38A, K53A, C76A, C127A) (human) (UniProt Q14116); assay: cell-based or functional assay
[14] = biological target: modified IL-18 polypeptide SEQ ID NO: 213 (V11I, S36A, C38A, K53A, C76A, C127A) (human) (UniProt Q14116); assay: cell-based or functional assay
[15] = biological target: modified IL-18 polypeptide SEQ ID NO: 228 (V11I, C38A, C76A, S105I, C127A) (human) (UniProt Q14116); assay: cell-based or functional assay
[16] = biological target: modified IL-18 polypeptide SEQ ID NO: 8 (E6K, V11I, C38A, K53A, T63A, C68A, C76A, T95C, C127A) (human) (UniProt Q14116); assay: cell-based or functional assay
[17] = biological target: modified IL-18 polypeptide SEQ ID NO: 207 (V11I, C38A, M51G, K53A, C76A, C127A) (human) (UniProt Q14116); assay: cell-based or functional assay
[18] = biological target: PEGylated modified IL-18 polypeptide SEQ ID NO: 9 + PEG (E6K, C38A, K53A, C68A, D98C-30kPEG) (human) (UniProt Q14116); assay: cell-based or functional assay
[19] = biological target: modified IL-18 polypeptide SEQ ID NO: 223 (K8E, V11I, C38A, C76A, Q103R, C127A) (human) (UniProt Q14116); assay: cell-based or functional assay
[20] = biological target: modified IL-18 polypeptide SEQ ID NO: 62 (E6K, C38A, K53A, C127A) (human) (UniProt Q14116); assay: cell-based or functional assay
[21] = biological target: PEGylated modified IL-18 polypeptide SEQ ID NO: 6 + PEG (E6K, V11I, C38A, K53A, T63A, C68A, C76A, C127A, D98C-30kPEG) (human) (UniProt Q14116); assay: cell-based or functional assay
[22] = biological target: modified IL-18 polypeptide SEQ ID NO: 216 (V11I, C38A, D40A, K53A, C76A, C127A) (human) (UniProt Q14116); assay: cell-based or functional assay
[23] = biological target: modified IL-18 polypeptide SEQ ID NO: 217 (V11I, C38A, N41A, K53A, C76A, C127A) (human) (UniProt Q14116); assay: cell-based or functional assay
[24] = biological target: modified IL-18 polypeptide SEQ ID NO: 59 (E6K, C38A, K53A) (human) (UniProt Q14116); assay: cell-based or functional assay
[25] = biological target: modified IL-18 polypeptide SEQ ID NO: 30 (E6K, V11I, C38A, K53A, T63A, C76A, C127A) (human) (UniProt Q14116); assay: cell-based or functional assay
[26] = biological target: modified IL-18 polypeptide SEQ ID NO: 57 (E6K, C38S, K53A) (human) (UniProt Q14116); assay: cell-based or functional assay
[27] = biological target: modified IL-18 polypeptide SEQ ID NO: 220 (V11I, C38A, K53A, C76A, H109A, C127A) (human) (UniProt Q14116); assay: cell-based or functional assay
[28] = biological target: modified IL-18 polypeptide SEQ ID NO: 210 (V11I, E31A, C38A, K53A, C76A, C127A) (human) (UniProt Q14116); assay: cell-based or functional assay
[29] = biological target: modified IL-18 polypeptide SEQ ID NO: 61 (E6K, C38A, K53A, C76A) (human) (UniProt Q14116); assay: cell-based or functional assay
[30] = biological target: modified IL-18 polypeptide SEQ ID NO: 204 (V11I, C38A, K53A, C76A, C127A) (human) (UniProt Q14116); assay: cell-based or functional assay
[31] = biological target: modified IL-18 polypeptide SEQ ID NO: 211 (V11I, T34A, C38A, K53A, C76A, C127A) (human) (UniProt Q14116); assay: cell-based or functional assay
[32] = biological target: modified IL-18 polypeptide SEQ ID NO: 205 (V11I, C38A, K53A, T63A, C76A, C127A) (human) (UniProt Q14116); assay: cell-based or functional assay
[33] = biological target: modified IL-18 polypeptide SEQ ID NO: 226 (V11I, C38A, S55R, C76A, C127A) (human) (UniProt Q14116); assay: cell-based or functional assay
[34] = biological target: modified IL-18 polypeptide SEQ ID NO: 229 (V11I, C38A, C76A, S105K, C127A) (human) (UniProt Q14116); assay: cell-based or functional assay
[35] = biological target: modified IL-18 polypeptide SEQ ID NO: 208 (V11I, C38A, K53A, D54A, C76A, C127A) (human) (UniProt Q14116); assay: cell-based or functional assay
[36] = biological target: modified IL-18 polypeptide SEQ ID NO: 60 (E6K, C38Q, K53A) (human) (UniProt Q14116); assay: cell-based or functional assay
[37] = biological target: modified IL-18 polypeptide SEQ ID NO: 225 (V11I, C38A, S55H, C76A, C127A) (human) (UniProt Q14116); assay: cell-based or functional assay
[38] = biological target: wild type IL-18 (SEQ ID NO: 1, native sequence) (human) (UniProt Q14116); assay: cell-based or functional assay
[39] = biological target: modified IL-18 polypeptide SEQ ID NO: 6 (E6K, V11I, C38A, K53A, T63A, C68A, C76A, D98C, C127A) (human) (UniProt Q14116); assay: cell-based or functional assay
[40] = biological target: modified IL-18 polypeptide SEQ ID NO: 212 (V11I, D35A, C38A, K53A, C76A, C127A) (human) (UniProt Q14116); assay: cell-based or functional assay
[41] = biological target: modified IL-18 polypeptide SEQ ID NO: 4 (E6K, C38A, K53A, C68A, M86C) (human) (UniProt Q14116); assay: cell-based or functional assay
[42] = biological target: modified IL-18 polypeptide SEQ ID NO: 5 (E6K, V11I, C38A, K53A, T63A, C68A, C76A, M86C, C127A) (human) (UniProt Q14116); assay: cell-based or functional assay
[43] = biological target: modified IL-18 polypeptide SEQ ID NO: 227 (V11I, C38A, S55T, C76A, C127A) (human) (UniProt Q14116); assay: cell-based or functional assay
[44] = biological target: modified IL-18 polypeptide SEQ ID NO: 218 (V11I, C38A, K53A, C76A, C127A, D132A) (human) (UniProt Q14116); assay: cell-based or functional assay
[45] = biological target: modified IL-18 polypeptide SEQ ID NO: 11 (E6K, V11I, C38A, K53A, C76A, C127A) (human) (UniProt Q14116); assay: cell-based or functional assay
[46] = biological target: Fc fused human IL-18BP isoform a (IL-18BPa) (human) (UniProt O95998); assay: SPR, Fc-IL-18BPa captured via anti-human IgG, IL-18 as analyte, 1:1 model
[47] = biological target: His-tagged human IL-18BP (human) (UniProt O95998); assay: alphaLISA of free IL-18BP after 1 h with titrated IL-18

Fc fused human IL-18BP isoform a (IL-18BPa) (human), sequence (O95998 31-194): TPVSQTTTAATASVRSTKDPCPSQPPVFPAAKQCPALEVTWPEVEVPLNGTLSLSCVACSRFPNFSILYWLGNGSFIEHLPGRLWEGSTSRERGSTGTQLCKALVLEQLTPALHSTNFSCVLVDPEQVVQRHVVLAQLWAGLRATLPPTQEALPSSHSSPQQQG
wild type IL-18 (SEQ ID NO: 1, native sequence), sequence (Q14116 37-193): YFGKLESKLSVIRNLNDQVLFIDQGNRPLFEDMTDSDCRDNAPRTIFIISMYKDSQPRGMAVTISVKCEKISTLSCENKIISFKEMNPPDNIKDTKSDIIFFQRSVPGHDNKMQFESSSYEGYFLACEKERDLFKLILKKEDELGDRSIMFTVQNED
modified IL-18 polypeptide SEQ ID NO: 212 (V11I, D35A, C38A, K53A, C76A, C127A) (human), sequence (Q14116 37-193 V47I/D71A/C74A/K89A/C112A/C163A): as the sequence (Q14116 37-193) above, with V11I, D35A, C38A, K53A, C76A, C127A counted along it
modified IL-18 polypeptide SEQ ID NO: 215 (V11I, E31A, D37A, C38A, K53A, C76A, C127A) (human), sequence (Q14116 37-193 V47I/E67A/D73A/C74A/K89A/C112A/C163A): as the sequence (Q14116 37-193) above, with V11I, E31A, D37A, C38A, K53A, C76A, C127A counted along it
modified IL-18 polypeptide SEQ ID NO: 61 (E6K, C38A, K53A, C76A) (human), sequence (Q14116 other isoform, or with tags, fused parts or gaps C38A K53A C76A C38A K53A C76A): as the sequence (Q14116 37-193) above, with E6K, C38A, K53A, C76A counted along it
modified IL-18 polypeptide SEQ ID NO: 229 (V11I, C38A, C76A, S105K, C127A) (human), sequence (Q14116 37-193 V47I/C74A/C112A/S141K/C163A): as the sequence (Q14116 37-193) above, with V11I, C38A, C76A, S105K, C127A counted along it
modified IL-18 polypeptide SEQ ID NO: 28 (E6K, C38A, K53A, T63A, C76A, C127A) (human), sequence (Q14116 other isoform, or with tags, fused parts or gaps C38A K53A T63A C76A C127A C38A K53A T63A C76A C127A): as the sequence (Q14116 37-193) above, with E6K, C38A, K53A, T63A, C76A, C127A counted along it
modified IL-18 polypeptide SEQ ID NO: 227 (V11I, C38A, S55T, C76A, C127A) (human), sequence (Q14116 37-193 V47I/C74A/S91T/C112A/C163A): as the sequence (Q14116 37-193) above, with V11I, C38A, S55T, C76A, C127A counted along it
modified IL-18 polypeptide SEQ ID NO: 209 (F2A, V11I, C38A, K53A, C76A, C127A) (human), sequence (Q14116 other isoform, or with tags, fused parts or gaps V11I C38A K53A C76A C127A V11I C38A K53A C76A C127A): as the sequence (Q14116 37-193) above, with F2A, V11I, C38A, K53A, C76A, C127A counted along it
modified IL-18 polypeptide SEQ ID NO: 11 (E6K, V11I, C38A, K53A, C76A, C127A) (human), sequence (Q14116 other isoform, or with tags, fused parts or gaps V11I C38A K53A C76A C127A V11I C38A K53A C76A C127A): as the sequence (Q14116 37-193) above, with E6K, V11I, C38A, K53A, C76A, C127A counted along it
modified IL-18 polypeptide SEQ ID NO: 204 (V11I, C38A, K53A, C76A, C127A) (human), sequence (Q14116 37-193 V47I/C74A/K89A/C112A/C163A): as the sequence (Q14116 37-193) above, with V11I, C38A, K53A, C76A, C127A counted along it
modified IL-18 polypeptide SEQ ID NO: 213 (V11I, S36A, C38A, K53A, C76A, C127A) (human), sequence (Q14116 37-193 V47I/S72A/C74A/K89A/C112A/C163A): as the sequence (Q14116 37-193) above, with V11I, S36A, C38A, K53A, C76A, C127A counted along it
modified IL-18 polypeptide SEQ ID NO: 210 (V11I, E31A, C38A, K53A, C76A, C127A) (human), sequence (Q14116 37-193 V47I/E67A/C74A/K89A/C112A/C163A): as the sequence (Q14116 37-193) above, with V11I, E31A, C38A, K53A, C76A, C127A counted along it
modified IL-18 polypeptide SEQ ID NO: 220 (V11I, C38A, K53A, C76A, H109A, C127A) (human), sequence (Q14116 37-193 V47I/C74A/K89A/C112A/H145A/C163A): as the sequence (Q14116 37-193) above, with V11I, C38A, K53A, C76A, H109A, C127A counted along it
modified IL-18 polypeptide SEQ ID NO: 8 (E6K, V11I, C38A, K53A, T63A, C68A, C76A, T95C, C127A) (human), sequence (Q14116 other isoform, or with tags, fused parts or gaps with the stated changes): as the sequence (Q14116 37-193) above, with E6K, V11I, C38A, K53A, T63A, C68A, C76A, T95C, C127A counted along it
modified IL-18 polypeptide SEQ ID NO: 222 (K8R, V11I, C38A, C76A, Q103E, C127A) (human), sequence (Q14116 other isoform, or with tags, fused parts or gaps V11I C38A C76A Q103E C127A V11I C38A C76A Q103E C127A): as the sequence (Q14116 37-193) above, with K8R, V11I, C38A, C76A, Q103E, C127A counted along it
modified IL-18 polypeptide SEQ ID NO: 219 (V11I, C38A, K53A, C76A, G108A, C127A) (human), sequence (Q14116 37-193 V47I/C74A/K89A/C112A/G144A/C163A): as the sequence (Q14116 37-193) above, with V11I, C38A, K53A, C76A, G108A, C127A counted along it
modified IL-18 polypeptide SEQ ID NO: 221 (V11I, C38A, K53A, C76A, D110A, C127A) (human), sequence (Q14116 37-193 V47I/C74A/K89A/C112A/D146A/C163A): as the sequence (Q14116 37-193) above, with V11I, C38A, K53A, C76A, D110A, C127A counted along it
modified IL-18 polypeptide SEQ ID NO: 60 (E6K, C38Q, K53A) (human), sequence (Q14116 other isoform, or with tags, fused parts or gaps C38Q K53A C38Q K53A): as the sequence (Q14116 37-193) above, with E6K, C38Q, K53A counted along it
modified IL-18 polypeptide SEQ ID NO: 207 (V11I, C38A, M51G, K53A, C76A, C127A) (human), sequence (Q14116 37-193 V47I/C74A/M87G/K89A/C112A/C163A): as the sequence (Q14116 37-193) above, with V11I, C38A, M51G, K53A, C76A, C127A counted along it
modified IL-18 polypeptide SEQ ID NO: 59 (E6K, C38A, K53A) (human), sequence (Q14116 other isoform, or with tags, fused parts or gaps C38A K53A C38A K53A): as the sequence (Q14116 37-193) above, with E6K, C38A, K53A counted along it
modified IL-18 polypeptide SEQ ID NO: 4 (E6K, C38A, K53A, C68A, M86C) (human), sequence (Q14116 other isoform, or with tags, fused parts or gaps C38A K53A C68A M86C C38A K53A C68A M86C): as the sequence (Q14116 37-193) above, with E6K, C38A, K53A, C68A, M86C counted along it
PEGylated modified IL-18 polypeptide SEQ ID NO: 4 + PEG (E6K, C38A, K53A, C68A, M86C-30kPEG) (human), sequence (Q14116 other isoform, or with tags, fused parts or gaps C38A K53A C68A M86C C38A K53A C68A M86C): as the sequence (Q14116 37-193) above, with E6K, C38A, K53A, C68A, M86C counted along it
modified IL-18 polypeptide SEQ ID NO: 225 (V11I, C38A, S55H, C76A, C127A) (human), sequence (Q14116 37-193 V47I/C74A/S91H/C112A/C163A): as the sequence (Q14116 37-193) above, with V11I, C38A, S55H, C76A, C127A counted along it
modified IL-18 polypeptide SEQ ID NO: 223 (K8E, V11I, C38A, C76A, Q103R, C127A) (human), sequence (Q14116 other isoform, or with tags, fused parts or gaps V11I C38A C76A Q103R C127A V11I C38A C76A Q103R C127A): as the sequence (Q14116 37-193) above, with K8E, V11I, C38A, C76A, Q103R, C127A counted along it
modified IL-18 polypeptide SEQ ID NO: 30 (E6K, V11I, C38A, K53A, T63A, C76A, C127A) (human), sequence (Q14116 other isoform, or with tags, fused parts or gaps with the stated changes): as the sequence (Q14116 37-193) above, with E6K, V11I, C38A, K53A, T63A, C76A, C127A counted along it
modified IL-18 polypeptide SEQ ID NO: 218 (V11I, C38A, K53A, C76A, C127A, D132A) (human), sequence (Q14116 37-193 V47I/C74A/K89A/C112A/C163A/D168A): as the sequence (Q14116 37-193) above, with V11I, C38A, K53A, C76A, C127A, D132A counted along it
modified IL-18 polypeptide SEQ ID NO: 206 (V11I, C38A, K53A, S55A, C76A, C127A) (human), sequence (Q14116 37-193 V47I/C74A/K89A/S91A/C112A/C163A): as the sequence (Q14116 37-193) above, with V11I, C38A, K53A, S55A, C76A, C127A counted along it

Substance: Fc fused human IL-18BP isoform a (IL-18BPa) (from UniProt O95998 31-194) (Fc fusion)
- IC50, IFNγ secretion by NK-92 cells [1]: 34 nM
- IC50, IFNγ secretion by NK-92 cells [2]: 233 nM
- IC50, IFNγ secretion by NK-92 cells [3]: 3.71 nM
- IC50, IFNγ secretion by NK-92 cells [4]: 2.22 nM
- IC50, IFNγ secretion by NK-92 cells [5]: 1.07 nM
- IC50, IFNγ secretion by NK-92 cells [6]: 0.823 nM
- IC50, IFNγ secretion by NK-92 cells [7]: 3.18 nM
- IC50, IFNγ secretion by NK-92 cells [8]: 3.98 nM
- IC50, IFNγ secretion by NK-92 cells [9]: 5.05 nM
- IC50, IFNγ secretion by NK-92 cells [10]: 10.2 nM
- IC50, IFNγ secretion by NK-92 cells [11]: 961 nM
- IC50, IFNγ secretion by NK-92 cells [12]: 12 nM
- IC50, IFNγ secretion by NK-92 cells [13]: 286 nM
- IC50, IFNγ secretion by NK-92 cells [14]: 7.85 nM
- IC50, IFNγ secretion by NK-92 cells [15]: 0.809 nM
- IC50, IFNγ secretion by NK-92 cells [16]: 522 nM
- IC50, IFNγ secretion by NK-92 cells [17]: 733 nM
- IC50, IFNγ secretion by NK-92 cells [18]: 27.2 nM
- IC50, IFNγ secretion by NK-92 cells [19]: 7.29 nM
- IC50, IFNγ secretion by NK-92 cells [20]: 284 nM
- IC50, IFNγ secretion by NK-92 cells [21]: 14.3 nM
- IC50, IFNγ secretion by NK-92 cells [22]: 3.23 nM
- IC50, IFNγ secretion by NK-92 cells [23]: 0.681 nM
- IC50, IFNγ secretion by NK-92 cells [24]: 654 nM
- IC50, IFNγ secretion by NK-92 cells [25]: 488 nM
- IC50, IFNγ secretion by NK-92 cells [26]: 146 nM
- IC50, IFNγ secretion by NK-92 cells [27]: 1.81 nM
- IC50, IFNγ secretion by NK-92 cells [28]: 1.17 nM
- IC50, IFNγ secretion by NK-92 cells [29]: 779 nM
- IC50, IFNγ secretion by NK-92 cells [30]: 1.62 nM
- IC50, IFNγ secretion by NK-92 cells [31]: 21.3 nM
- IC50, IFNγ secretion by NK-92 cells [32]: 7.52 nM
- IC50, IFNγ secretion by NK-92 cells [33]: 0.885 nM
- IC50, IFNγ secretion by NK-92 cells [34]: 0.176 nM
- IC50, IFNγ secretion by NK-92 cells [35]: 47.6 nM
- IC50, IFNγ secretion by NK-92 cells [36]: 780 nM
- IC50, IFNγ secretion by NK-92 cells [37]: 0.456 nM
- IC50, IFNγ secretion by NK-92 cells [38]: 0.787 nM
- IC50, IFNγ secretion by NK-92 cells [39]: 5.85 nM
- IC50, IFNγ secretion by NK-92 cells [40]: 3.62 nM
- IC50, IFNγ secretion by NK-92 cells [41]: 396 nM
- IC50, IFNγ secretion by NK-92 cells [42]: 62.4 nM
- IC50, IFNγ secretion by NK-92 cells [43]: 0.44 nM
- IC50, IFNγ secretion by NK-92 cells [44]: 6.08 nM
- IC50, IFNγ secretion by NK-92 cells [45]: 532 nM

Substance: modified IL-18 polypeptide SEQ ID NO: 57 (E6K, C38S, K53A) (from UniProt Q14116 37-193) (ligand)
- pKd [46]: 8.57
- koff [46]: 0.0031 s⁻¹
- kon [46]: 1.14e+06 M⁻¹ s⁻¹

Substance: modified IL-18 polypeptide SEQ ID NO: 59 (E6K, C38A, K53A) (from UniProt Q14116 37-193) (ligand)
- pKd [47]: 7.44

Substance: wild type IL-18 (SEQ ID NO: 1, native sequence) (from UniProt Q14116 37-193) (ligand)
- pKd [47]: 9.38
- pKd [46]: 9.57
- koff [46]: 0.000383 s⁻¹
- kon [46]: 1.49e+06 M⁻¹ s⁻¹

Source: patent US20230357342A1
